Laboratory results reported in the supplement of paper PMC9732359.
± gives the uncertainty stated by the source.

Experiment: protein stability index of a GFP-peptide fusion (yeast GPS) (PSI 1-4); higher = more stable; sorted into four equal gates, so the index is relative within each strain
Procedure, shortened: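 Tiled 17-residue peptides from yeast proteins were fused downstream of GFP on a plasmid that also expresses Cherry, and the pooled library was carried in yeast. Mid-log cultures grown in leucine-free medium were sorted into four equal gates by GFP/Cherry fluorescence ratio. Plasmids from each gate were PCR-amplified and Illumina-sequenced, and reads were assigned to strains by barcodes. Each peptide's protein stability index is the sum, over gates, of the gate's read frequency multiplied by its gate number.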

Row | Sequence | protein stability index (doa10∆) | protein stability index (pdr5∆) | protein stability index (san1∆) | protein stability index (ubr1∆)
1 | KYNAFIASEVLIKQVPR [RPL1A] | 1.73 ± 0.085 | 1.57 ± 0.06 | 1.39 ± 0.15 | 1.66 ± 0.045
2 | KYNVNISALTQTEIKDI [PRP8] | 2.6 ± 0.082 | 2.57 ± 0.083 | 2.18 ± 0.067 | 2.75 ± 0.051
3 | LAANYLNIKPLLDAGCK [SKP1] | 1.83 ± 0.076 | 2.19 ± 0.081 | 1.57 ± 0.12 | 2.23 ± 0.09
4 | LADDDEERFSELFKGYL [RPL5] | 1.59 ± 0.13 | 2.05 ± 0.14 | 2.84 ± 0.2 | 3.01 ± 0.28
5 | LADYIVEVLLVNYNSDM [NUT1] | 1.28 ± 0.047 | 1.35 ± 0.037 | 1.39 ± 0.14 | 1.2 ± 0.039
6 | LAELINMTTIADRNDDD [SRB6] | 2.73 ± 0.066 | 2.64 ± 0.078 | 2.75 ± 0.062 | 2.78 ± 0.076
7 | LAKKIAPGKVELAINLI [SMC2] |  | 2.88 ± 0.15 |  | 2.65 ± 0.1
8 | LAPSKHQPITSEQKMKE [SIR4] | 2.31 ± 0.077 | 2.37 ± 0.098 | 2.61 ± 0.1 | 2.29 ± 0.24
9 | LAQKKAHLAEIQLNGGS [RPL3] |  |  |  | 2.85 ± 0.12
10 | LARDTPSANNSSSIKST [RRP4] | 2.86 ± 0.076 | 2.91 ± 0.057 | 2.97 ± 0.047 | 3.14 ± 0.054
11 | LARHLPAELDLRGSLLS [RPC82] | 3.04 ± 0.12 | 3.16 ± 0.11 | 3.01 ± 0.085 | 3.15 ± 0.072
12 | LASNFDNFDYFNQRDGE [MED1] | 3.3 ± 0.08 | 3.17 ± 0.09 | 3.2 ± 0.084 | 3.1 ± 0.11
13 | LATNSLVEEFMLLANIS [DIS3] | 1.39 ± 0.095 | 1.7 ± 0.099 | 1.74 ± 0.16 | 2.37 ± 0.071
14 | LCLTEFENCYLEGNDIH [FAS1] | 3.02 ± 0.089 | 3.26 ± 0.076 | 3.2 ± 0.13 | 2.95 ± 0.1
15 | LDGDRADKRGVLTGGYL [SMC3] | 2.93 ± 0.2 | 3.03 ± 0.23 |  | 3.07 ± 0.2
16 | LDPALLRPGRIDRKVEF [RPT1] |  | 3.07 ± 0.28 | 3.34 ± 0.068 | 
17 | LDPLEMEGNAQPVNFNR [RPO31] | 3.37 ± 0.09 | 3.29 ± 0.081 | 2.93 ± 0.1 | 2.97 ± 0.1
18 | LDRISSYTAFSRLTLLL [PRP8] | 1.86 ± 0.047 | 1.59 ± 0.044 | 1.93 ± 0.068 | 1.95 ± 0.035
19 | LDRRFEIFFKKDSLWQS [FAS1] | 3.15 ± 0.13 | 3.16 ± 0.11 | 2.52 ± 0.26 | 2.91 ± 0.061
20 | LDTLPSEFDSRVKAMEV [RPT5] | 2.93 ± 0.085 | 3.11 ± 0.098 | 3.2 ± 0.068 | 3.36 ± 0.1
21 | LEDELYHTNPGHSQFTS [RPN4] | 3.34 ± 0.11 | 3.15 ± 0.09 | 3.05 ± 0.082 | 3.21 ± 0.071
22 | LEDMVFPTEIVGKRVRY [RPS7B] | 1.57 ± 0.16 | 1.76 ± 0.088 | 2.5 ± 0.21 | 2.69 ± 0.055
23 | LEDQQRQQKLLLETKLR [SWI1] | 2.81 ± 0.12 | 2.65 ± 0.14 | 3.12 ± 0.083 | 2.31 ± 0.17
24 | LEFRWLTSSKSVIVSQF [SIN4] | 1.73 ± 0.056 | 1.56 ± 0.059 | 1.6 ± 0.087 | 1.42 ± 0.061
25 | LEKDAADCQAELTKTKS [YIL149C/MLP2] | 2.94 ± 0.13 | 2.76 ± 0.26 | 2.75 ± 0.18 | 2.87 ± 0.1
26 | LELPLCPYCYKKRREYF [SIR2] | 2.46 ± 0.053 | 2.06 ± 0.057 | 1.95 ± 0.07 | 1.98 ± 0.077
27 | LELTTGATYRGKLVESE [SMD3] | 3.29 ± 0.079 | 3.26 ± 0.084 | 2.94 ± 0.11 | 3.38 ± 0.057
28 | LENQKDLVIVDENELKK [MTW1] | 3.65 ± 0.23 |  |  | 

Row | Sequence | protein stability index (doa10∆) | protein stability index (pdr5∆) | protein stability index (san1∆) | protein stability index (ubr1∆)
29 | LEPFLLMLEDTDGDSIL [BRR2] | 2.71 ± 0.071 | 3.06 ± 0.089 | 3.05 ± 0.073 | 3.1 ± 0.05
30 | LEQVEFEKNTILQQRSK [MED4] | 2.94 ± 0.22 | 3.44 ± 0.13 | 2.77 ± 0.11 | 3.27 ± 0.1
31 | LERTDLKSKVIDSPELL [RPN7] | 3.17 ± 0.073 | 3.01 ± 0.083 | 3.26 ± 0.085 | 3.2 ± 0.076
32 | LESEIASSSAKLIEKKS [SMC2] | 2.69 ± 0.072 | 3.03 ± 0.058 | 3.08 ± 0.04 | 3 ± 0.055
33 | LESYKTQAKKLYHHTTK [SRP72] | 2.29 ± 0.068 | 2.73 ± 0.096 | 2.02 ± 0.13 | 2.66 ± 0.06
34 | LETEQLSSELDSNKTLL [SMC2] | 3.35 ± 0.071 | 3.32 ± 0.082 | 3.26 ± 0.05 | 3.31 ± 0.049
35 | LEVGRRFSPDEDFEHNN [MCD1] | 3.26 ± 0.15 | 3.45 ± 0.18 | 3.22 ± 0.16 | 3.45 ± 0.18
36 | LFEIVSNADTNQNSDMK [SRB8] | 2.51 ± 0.29 | 2.87 ± 0.29 | 2.85 ± 0.16 | 
37 | LFEQIGIRIKGKIVGFD [SME1] | 1.92 ± 0.12 | 1.85 ± 0.1 | 1.48 ± 0.2 | 1.89 ± 0.096
38 | LFEQLQTVSNKEDAKAT [SRP54] | 3.41 ± 0.14 | 3.04 ± 0.1 | 3.18 ± 0.054 | 3.18 ± 0.059
39 | LFGSPPFILEYDLMAPN [YMR129W/POM152] | 2.74 ± 0.075 | 2.9 ± 0.094 |  | 2.94 ± 0.074
40 | LFGSSNNNNNNNNSNNI [YGL172W/NUP49] | 2.93 ± 0.077 | 2.33 ± 0.056 | 2.53 ± 0.086 | 2.6 ± 0.097
41 | LFKYQGHIGAYLIVAGV [PUP1] | 1.66 ± 0.067 | 2.04 ± 0.06 | 1.39 ± 0.12 | 2.53 ± 0.055
42 | LFQTIEKLINNSDDCMM [ECM29] | 3.1 ± 0.083 | 2.92 ± 0.072 | 3.09 ± 0.063 | 3.03 ± 0.09
43 | LFSLLELGEQKCQELVT [RRP46] | 1.97 ± 0.061 | 1.8 ± 0.056 | 1.87 ± 0.093 | 2.1 ± 0.058
44 | LFSPEEVRAISVAKIRF [RPO21] | 2.17 ± 0.1 | 2.31 ± 0.088 | 2.41 ± 0.096 | 2.39 ± 0.07
45 | LFVFTEGWPKFQDTLYK [QCR10] | 3.21 ± 0.19 | 2.91 ± 0.22 | 3.08 ± 0.12 | 
46 | LFVISTEISPMAGSQFE [RRP45] | 1.89 ± 0.08 | 2.21 ± 0.06 | 2.8 ± 0.077 | 1.2 ± 0.11
47 | LGFEVKDQALIGTINSI [SIR2] | 2.12 ± 0.051 | 2.48 ± 0.062 | 2.27 ± 0.054 | 2.35 ± 0.073
48 | LGLEYIIRLLPINLENN [SRB8] | 1.67 ± 0.07 | 1.33 ± 0.058 | 1.24 ± 0.096 | 1.39 ± 0.061
49 | LGPRGVSITPGKIEKIA [SRP21] | 2.02 ± 0.065 | 2.62 ± 0.049 | 1.98 ± 0.088 | 2.41 ± 0.039
50 | LGQLYVTMGAKDKLREF [RPN6] | 3.33 ± 0.12 | 3.13 ± 0.11 | 3.08 ± 0.078 | 3.12 ± 0.069
51 | LGSHSSSQKDGNDFKFN [REC8] | 3.25 ± 0.07 | 3.24 ± 0.063 | 2.91 ± 0.081 | 3.22 ± 0.057
52 | LGVPRIKEIINASKVIS [RPO31] | 3.03 ± 0.1 | 2.59 ± 0.2 | 1.49 ± 0.12 | 1.71 ± 0.24
53 | LHKRLHGVSFKKRAPRA [RPL31A] | 2.9 ± 0.12 | 2.73 ± 0.13 | 3 ± 0.16 | 3.17 ± 0.11
54 | LHLANEHGLQITHTENY [BRN1] | 2.71 ± 0.13 | 2.79 ± 0.13 | 2.68 ± 0.15 | 2.76 ± 0.068
55 | LIALSLIMALLQFRPAP [SMC2] | 1.62 ± 0.029 | 1.3 ± 0.026 | 1.36 ± 0.048 | 1.3 ± 0.025
